Data published in patent US20170355766A1 (Xencor, published 2017).

T1: human H131 FcγRIIa receptor protein (6xHis and GST tags) (human, UniProt P12318 34-217, limits assumed)
T1 construct: also called HIIa
T1 sequence (looked up): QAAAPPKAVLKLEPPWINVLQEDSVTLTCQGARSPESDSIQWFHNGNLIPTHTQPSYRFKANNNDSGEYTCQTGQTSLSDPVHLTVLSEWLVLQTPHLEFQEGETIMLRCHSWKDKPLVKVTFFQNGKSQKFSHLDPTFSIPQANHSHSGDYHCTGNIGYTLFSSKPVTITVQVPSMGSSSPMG

T2: human FcγRIIb receptor protein (R&D Systems) (human, UniProt P31994 46-217)
T2 construct: Analyte injected over antibodies captured on a protein A/G chip (Biacore); also called CD32b
T2 sequence (looked up): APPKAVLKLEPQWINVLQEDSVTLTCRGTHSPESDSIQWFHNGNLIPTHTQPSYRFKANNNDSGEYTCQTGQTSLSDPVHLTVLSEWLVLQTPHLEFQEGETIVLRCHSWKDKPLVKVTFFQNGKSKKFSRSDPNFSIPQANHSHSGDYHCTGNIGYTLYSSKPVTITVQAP

T3: FcγRIIaR (human, UniProt P12318)
T3 construct: recombinant receptor protein with 6xHis and GST tags; also called R131 FcγRIIa
T3 sequence (receptor, looked up): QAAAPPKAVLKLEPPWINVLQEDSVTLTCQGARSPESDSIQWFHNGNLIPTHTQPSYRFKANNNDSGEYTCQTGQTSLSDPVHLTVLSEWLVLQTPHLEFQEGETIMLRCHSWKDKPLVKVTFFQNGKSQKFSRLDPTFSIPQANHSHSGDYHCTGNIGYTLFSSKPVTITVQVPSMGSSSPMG


How the values were obtained:
Assay in all cases: SPR (Biacore)
[1] = target: T1, human H131 FcγRIIa receptor protein …
[2] = target: T4, human FcγRI receptor protein (R&D Systems) (human, UniProt P12314 16-288)
T4 construct: also called CD64

[3] = target: T2, human FcγRIIb receptor protein (R&D …)
FcγRIIaR = target: T3, FcγRIIaR
[4] = target: T5, human V158 FcγRIIIa receptor protein (6xHis and GST tags) (human, UniProt P08637 17-208, limits assumed)
T5 construct: also called VIIIa
T5 sequence (P08637 17-208 F176V limits assumed): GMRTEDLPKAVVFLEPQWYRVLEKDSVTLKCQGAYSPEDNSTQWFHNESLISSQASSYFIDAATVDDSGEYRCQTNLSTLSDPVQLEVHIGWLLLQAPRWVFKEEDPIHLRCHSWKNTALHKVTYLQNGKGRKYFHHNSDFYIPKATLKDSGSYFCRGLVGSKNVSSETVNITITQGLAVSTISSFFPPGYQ

T4 sequence (P12314 16-288 limits assumed): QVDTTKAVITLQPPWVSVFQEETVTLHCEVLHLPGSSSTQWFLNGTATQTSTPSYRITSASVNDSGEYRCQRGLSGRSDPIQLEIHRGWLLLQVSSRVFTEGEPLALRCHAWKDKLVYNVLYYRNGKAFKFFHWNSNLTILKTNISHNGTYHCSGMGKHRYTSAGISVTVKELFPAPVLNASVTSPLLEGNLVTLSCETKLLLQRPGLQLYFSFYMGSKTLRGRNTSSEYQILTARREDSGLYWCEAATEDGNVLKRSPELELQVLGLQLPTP

Binder	binding result [1]	Fold FcγRI [2] [fold]	Fold FcγRIIb [3] [fold]	Fold FcγRIIaR (FcγRIIaR) [fold]	binding result [4]	Fold FcγRIIaH [1] [fold]	Fold FcγRIIIaV [4] [fold]	binding result [2]
L235D/S267E (antibody, human IgG1, kappa, HuAM4G7 IgG1 Fc variant) heavy: not shown light: DIVMTQSPATLSLSPGERATLSCRSSKSLQNVNGNTYLYWFQQKPGQSPQLLIYRMSNLNSGVPDRFSGSGSGTEFTLTISSLEPEDFAVYYCMQHLEYPITFGAGTKLEIKRTVAAPSVFIFPPSDEQLKSGTASVVCLLNNFYPREAKVQWKVDNALQSGNSQESVTEQDSKDSTYSLSSTLTLSKADYEKHKVYACEVTHQGLSSPVTKSFNRGEC	no binding	0.00039	16.7	13	no binding	–	–	–
L235Y/S239D/S267E (antibody, human IgG1, kappa, HuAM4G7 IgG1 Fc variant) heavy: EVQLVESGGGLVKPGGSLKLSCAASGYTFTSYVMHWVRQAPGKGLEWIGYINPYNDGTKYNEKFQGRVTISSDKSISTAYMELSSLRSEDTAMYYCARGTYYYGTRVFDYWGQGTLVTVSSASTKGPSVFPLAPSSKSTSGGTAALGCLVKDYFPEPVTVSWNSGALTSGVHTFPAVLQSSGLYSLSSVVTVPSSSLGTQTYICNVNHKPSNTKVDKKVEPKSCDKTHTCPPCPAPELYGGPDVFLFPPKPKDTLMISRTPEVTCVVVDVEHEDPEVKFNWYVDGVEVHNAKTKPREEQYNSTYRVVSVLTVLHQDWLNGKEYKCKVSNKALPAPIEKTISKAKGQPREPQVYTLPPSREEMTKNQVSLTCLVKGFYPSDIAVEWESNGQPENNYKTTPPVLDSDGSFFLYSKLTVDKSRWQQGNVFSCSVMHEALHNHYTQKSLSLSPGK light: DIVMTQSPATLSLSPGERATLSCRSSKSLQNVNGNTYLYWFQQKPGQSPQLLIYRMSNLNSGVPDRFSGSGSGTEFTLTISSLEPEDFAVYYCMQHLEYPITFGAGTKLEIKRTVAAPSVFIFPPSDEQLKSGTASVVCLLNNFYPREAKVQWKVDNALQSGNSQESVTEQDSKDSTYSLSSTLTLSKADYEKHKVYACEVTHQGLSSPVTKSFNRGEC	–	1.07	116	98.9	–	1.05	2.6	–
L235Y/S267E/H268E (antibody, human IgG1, kappa, HuAM4G7 IgG1 Fc variant) heavy: EVQLVESGGGLVKPGGSLKLSCAASGYTFTSYVMHWVRQAPGKGLEWIGYINPYNDGTKYNEKFQGRVTISSDKSISTAYMELSSLRSEDTAMYYCARGTYYYGTRVFDYWGQGTLVTVSSASTKGPSVFPLAPSSKSTSGGTAALGCLVKDYFPEPVTVSWNSGALTSGVHTFPAVLQSSGLYSLSSVVTVPSSSLGTQTYICNVNHKPSNTKVDKKVEPKSCDKTHTCPPCPAPELYGGPSVFLFPPKPKDTLMISRTPEVTCVVVDVEEEDPEVKFNWYVDGVEVHNAKTKPREEQYNSTYRVVSVLTVLHQDWLNGKEYKCKVSNKALPAPIEKTISKAKGQPREPQVYTLPPSREEMTKNQVSLTCLVKGFYPSDIAVEWESNGQPENNYKTTPPVLDSDGSFFLYSKLTVDKSRWQQGNVFSCSVMHEALHNHYTQKSLSLSPGK light: DIVMTQSPATLSLSPGERATLSCRSSKSLQNVNGNTYLYWFQQKPGQSPQLLIYRMSNLNSGVPDRFSGSGSGTEFTLTISSLEPEDFAVYYCMQHLEYPITFGAGTKLEIKRTVAAPSVFIFPPSDEQLKSGTASVVCLLNNFYPREAKVQWKVDNALQSGNSQESVTEQDSKDSTYSLSSTLTLSKADYEKHKVYACEVTHQGLSSPVTKSFNRGEC	–	0.0103	69.9	48.2	–	0.157	0.428	–
L235D/S267E/L328F (antibody, human IgG1, kappa, HuAM4G7 IgG1 Fc variant) heavy: EVQLVESGGGLVKPGGSLKLSCAASGYTFTSYVMHWVRQAPGKGLEWIGYINPYNDGTKYNEKFQGRVTISSDKSISTAYMELSSLRSEDTAMYYCARGTYYYGTRVFDYWGQGTLVTVSSASTKGPSVFPLAPSSKSTSGGTAALGCLVKDYFPEPVTVSWNSGALTSGVHTFPAVLQSSGLYSLSSVVTVPSSSLGTQTYICNVNHKPSNTKVDKKVEPKSCDKTHTCPPCPAPELDGGPSVFLFPPKPKDTLMISRTPEVTCVVVDVEHEDPEVKFNWYVDGVEVHNAKTKPREEQYNSTYRVVSVLTVLHQDWLNGKEYKCKVSNKAFPAPIEKTISKAKGQPREPQVYTLPPSREEMTKNQVSLTCLVKGFYPSDIAVEWESNGQPENNYKTTPPVLDSDGSFFLYSKLTVDKSRWQQGNVFSCSVMHEALHNHYTQKSLSLSPGK light: DIVMTQSPATLSLSPGERATLSCRSSKSLQNVNGNTYLYWFQQKPGQSPQLLIYRMSNLNSGVPDRFSGSGSGTEFTLTISSLEPEDFAVYYCMQHLEYPITFGAGTKLEIKRTVAAPSVFIFPPSDEQLKSGTASVVCLLNNFYPREAKVQWKVDNALQSGNSQESVTEQDSKDSTYSLSSTLTLSKADYEKHKVYACEVTHQGLSSPVTKSFNRGEC	–	0.00057	80.4	133	no binding	0.275	–	–
L235I (antibody, human IgG1, kappa, HuAM4G7 IgG1 Fc variant) heavy: not shown light: DIVMTQSPATLSLSPGERATLSCRSSKSLQNVNGNTYLYWFQQKPGQSPQLLIYRMSNLNSGVPDRFSGSGSGTEFTLTISSLEPEDFAVYYCMQHLEYPITFGAGTKLEIKRTVAAPSVFIFPPSDEQLKSGTASVVCLLNNFYPREAKVQWKVDNALQSGNSQESVTEQDSKDSTYSLSSTLTLSKADYEKHKVYACEVTHQGLSSPVTKSFNRGEC	–	0.0197	0.908	0.666	–	0.181	0.903	–
L235Y (antibody, human IgG1, kappa, HuAM4G7 IgG1 Fc variant) heavy: not shown light: DIVMTQSPATLSLSPGERATLSCRSSKSLQNVNGNTYLYWFQQKPGQSPQLLIYRMSNLNSGVPDRFSGSGSGTEFTLTISSLEPEDFAVYYCMQHLEYPITFGAGTKLEIKRTVAAPSVFIFPPSDEQLKSGTASVVCLLNNFYPREAKVQWKVDNALQSGNSQESVTEQDSKDSTYSLSSTLTLSKADYEKHKVYACEVTHQGLSSPVTKSFNRGEC	–	0.00232	1.05	1.28	–	1.35	0.504	–
L235Y/G236D/S267E (antibody, human IgG1, kappa, HuAM4G7 IgG1 Fc variant) heavy: EVQLVESGGGLVKPGGSLKLSCAASGYTFTSYVMHWVRQAPGKGLEWIGYINPYNDGTKYNEKFQGRVTISSDKSISTAYMELSSLRSEDTAMYYCARGTYYYGTRVFDYWGQGTLVTVSSASTKGPSVFPLAPSSKSTSGGTAALGCLVKDYFPEPVTVSWNSGALTSGVHTFPAVLQSSGLYSLSSVVTVPSSSLGTQTYICNVNHKPSNTKVDKKVEPKSCDKTHTCPPCPAPELYDGPSVFLFPPKPKDTLMISRTPEVTCVVVDVEHEDPEVKFNWYVDGVEVHNAKTKPREEQYNSTYRVVSVLTVLHQDWLNGKEYKCKVSNKALPAPIEKTISKAKGQPREPQVYTLPPSREEMTKNQVSLTCLVKGFYPSDIAVEWESNGQPENNYKTTPPVLDSDGSFFLYSKLTVDKSRWQQGNVFSCSVMHEALHNHYTQKSLSLSPGK light: DIVMTQSPATLSLSPGERATLSCRSSKSLQNVNGNTYLYWFQQKPGQSPQLLIYRMSNLNSGVPDRFSGSGSGTEFTLTISSLEPEDFAVYYCMQHLEYPITFGAGTKLEIKRTVAAPSVFIFPPSDEQLKSGTASVVCLLNNFYPREAKVQWKVDNALQSGNSQESVTEQDSKDSTYSLSSTLTLSKADYEKHKVYACEVTHQGLSSPVTKSFNRGEC	no binding	–	25	9.67	no binding	–	–	no binding
L235F/S267E (antibody, human IgG1, kappa, HuAM4G7 IgG1 Fc variant) heavy: not shown light: DIVMTQSPATLSLSPGERATLSCRSSKSLQNVNGNTYLYWFQQKPGQSPQLLIYRMSNLNSGVPDRFSGSGSGTEFTLTISSLEPEDFAVYYCMQHLEYPITFGAGTKLEIKRTVAAPSVFIFPPSDEQLKSGTASVVCLLNNFYPREAKVQWKVDNALQSGNSQESVTEQDSKDSTYSLSSTLTLSKADYEKHKVYACEVTHQGLSSPVTKSFNRGEC	–	0.0176	28.4	32.5	no binding	0.402	–	–
